Laboratory results: patent US20240262917A1, “ANTIBODIES AGAINST ALK AND METHODS OF USE THEREOF” (Dana-Farber Cancer Institute, Inc., priority 2021, published 2024)
Entries after “also recorded” stand apart in the source; their conditions may differ.

Experiments:
Format in all cases: binding
[1] = target: T1, ALK (Homo sapiens, UniProt Q9UM73); assay: Screening and subcloning of hybridomas (ELISA, FCM, functional assays); design: The human ALK extracellular domain (19-682 aa) fused to the mouse Fc gene; made in house; host or cells: 293T cells; settings: after subcloning by limiting dilution
Experimental: HAT-selected fused cells were distributed in 96 well plates and the hybridoma supernatants were subjected to several rounds of screening. Initial screening was performed using ELISA against human Fc to test antigen binding with the ALK ECD-human Fc fusion protein. […] These were rescreened by FACS against Ba/F3 and neuroblastoma (NB) cells expressing ALK. From this screen, 22 positive hybridoma supernatants were tested in an antigen-binding capture ELISA assay and 11 were subsequently selected for further analysis. (A) Binding of hybridoma supernatants using an antigen-binding capture assay. The plate was coated with goat-anti-mouse IgG Fc, incubated with hybridoma supernatants, followed by ALK-HRP and visualized using an HRP substrate. (B) Binding of selected hybridoma supernatants to a human Fc antibody using ELISA screening. Plates were coated with the ALK ECD-human Fc fusion protein (ALK-hFc) together with an irrelevant hFc protein and visualized using an anti-mouse kappa light chain antibody. Only the supernatants with the highest binding are shown.
Supernatants from individual clones were then screened by ELISA and FACS analysis for ALK binding. Shown here is the viability of NGP neuroblastoma cells (expressing ALK) in the presence of anti-mouse IgG antibody in hybridoma clone supernatants. […]
Target sequence in this assay (Q9UM73 19-682): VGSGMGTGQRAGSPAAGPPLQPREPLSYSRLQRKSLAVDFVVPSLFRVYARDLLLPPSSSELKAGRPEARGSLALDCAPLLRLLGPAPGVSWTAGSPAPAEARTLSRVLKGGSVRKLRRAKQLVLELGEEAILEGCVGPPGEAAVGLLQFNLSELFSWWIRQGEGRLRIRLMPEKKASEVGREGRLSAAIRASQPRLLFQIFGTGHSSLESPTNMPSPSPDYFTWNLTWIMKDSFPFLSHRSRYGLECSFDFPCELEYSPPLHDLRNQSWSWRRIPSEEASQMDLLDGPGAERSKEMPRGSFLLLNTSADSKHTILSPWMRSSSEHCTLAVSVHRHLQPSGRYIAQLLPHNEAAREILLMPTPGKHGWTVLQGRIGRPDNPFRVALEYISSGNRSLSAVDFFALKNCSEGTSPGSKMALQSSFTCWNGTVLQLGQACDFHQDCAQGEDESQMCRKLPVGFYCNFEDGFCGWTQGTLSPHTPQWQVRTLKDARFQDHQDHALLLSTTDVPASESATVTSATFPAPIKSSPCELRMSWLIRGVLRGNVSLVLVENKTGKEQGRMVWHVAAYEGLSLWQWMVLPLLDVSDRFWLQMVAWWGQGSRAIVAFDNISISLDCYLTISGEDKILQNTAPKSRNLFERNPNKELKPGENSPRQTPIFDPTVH

[2] = target: T1, ALK; assay: Western blot analysis of ALK in cell lysates and conditioned media; design: endogenous in cells; host or cells: human neuroblastoma lines (NGP, SH-SY5Y, Kelly and others)
Description: (A) Western blot analysis of ALK in Kelly and SHEP neuroblastoma cells overexpressing GFP and mutated ALK using the mAb-7 and 8G7 anti-ALK antibodies. The mAb-7 antibody was developed at the Vigny laboratory (INSERM, Unité 706/Université Pierre et Marie Curie, Paris F-75005, France) (Moog-Lutz et al, 2005; PMID: 15886198) and obtained through a Materials Transfer Agreement. (B) Western blot analysis of ALK expression in various non-neuroblastoma cell lines: H1373 (human […]), HeLa (cervical cancer), NIH-3T3 (transformed mouse fibroblast cells) using 8G7 and C26G7 (rabbit monoclonal C-terminal anti-ALK antibody; Cell Signaling Technology; Cat #3333; RRID:AB_836862) anti-ALK antibodies.
The three HPLC-purified monoclonal antibodies (5H3, 7F7 and 8G7) all of the IgG1 subtype, were tested for their ability to bind to ALK in neuroblastoma cells expressing ALK. Both cell lysates and supernatants from cells grown with and without serum (to increase the expression of ALK) were tested by western blotting. […] (A) Western blot analysis of the indicated hybridoma clones in neuroblastoma cell lines expressing WT (NGP) and mutated (SHSY5Y, Kelly) ALK. NIH3T3 cells were used as controls. (B) Western blot analysis of conditioned media from NGP neuroblastoma and 293T cells engineered to express the WT ALK receptor, with the three ALK mAbs showing binding with the shed ALK extracellular domain. […]
Cell lysates were prepared in NP-40 buffer (Invitrogen) containing complete protease inhibitor (Roche), phosphatase inhibitor (Roche) and phenylmethylsulfonyl fluoride (PMSF). Lysates were incubated on ice for 20 min and centrifuged at 16,000 g for 15 min at 4° C. Protein concentrations of the supernatants were determined with the DC protein assay kit (Bio-Rad). Protein samples were denatured using NuPAGE LDS sample buffer (Invitrogen) and NuPAGE sample reducing agent (Invitrogen). Proteins were then separated on precast 4-12% Bis-Tris gels (Invitrogen) and transferred to nitrocellulose membranes (Bio-Rad). After blocking in blocking buffer (5% dry milk in TBS with 0.2% Tween-20), membranes were incubated with the primary antibody overnight at 4 °C, washed three times with TBST buffer, chemiluminescent detection performed with the appropriate secondary antibodies and developed using Genemate Blue ultra-autoradiography film (VWR).

[3] = tested on: ALK receptor; assay: Immunocytochemistry and immunohistochemistry staining of ALK; settings: 293T and NB9464 cells expressing WT ALK; tumor tissue from ALK F1174L/MYCN transgenic mouse model
Description: (A). Immunocytochemistry staining with the 8G7 antibody of 293T and NB9464 (mouse neuroblastoma cells derived from Th-MycN transgenic tumor model; Weiss et al, 1997) cells expressing a control vector or WT ALK. 5×10^6 cells were fixed in 10% formalin and images captured using a Zeiss AXIO Imager Z1 fluorescence microscope following staining. (B) Immunohistochemistry of tumor tissue from the ALK F1174L/MYCN transgenic mouse model using the 8G7 antibody.

ALK receptor, sequence (Q9UM73 19-1038 limits assumed): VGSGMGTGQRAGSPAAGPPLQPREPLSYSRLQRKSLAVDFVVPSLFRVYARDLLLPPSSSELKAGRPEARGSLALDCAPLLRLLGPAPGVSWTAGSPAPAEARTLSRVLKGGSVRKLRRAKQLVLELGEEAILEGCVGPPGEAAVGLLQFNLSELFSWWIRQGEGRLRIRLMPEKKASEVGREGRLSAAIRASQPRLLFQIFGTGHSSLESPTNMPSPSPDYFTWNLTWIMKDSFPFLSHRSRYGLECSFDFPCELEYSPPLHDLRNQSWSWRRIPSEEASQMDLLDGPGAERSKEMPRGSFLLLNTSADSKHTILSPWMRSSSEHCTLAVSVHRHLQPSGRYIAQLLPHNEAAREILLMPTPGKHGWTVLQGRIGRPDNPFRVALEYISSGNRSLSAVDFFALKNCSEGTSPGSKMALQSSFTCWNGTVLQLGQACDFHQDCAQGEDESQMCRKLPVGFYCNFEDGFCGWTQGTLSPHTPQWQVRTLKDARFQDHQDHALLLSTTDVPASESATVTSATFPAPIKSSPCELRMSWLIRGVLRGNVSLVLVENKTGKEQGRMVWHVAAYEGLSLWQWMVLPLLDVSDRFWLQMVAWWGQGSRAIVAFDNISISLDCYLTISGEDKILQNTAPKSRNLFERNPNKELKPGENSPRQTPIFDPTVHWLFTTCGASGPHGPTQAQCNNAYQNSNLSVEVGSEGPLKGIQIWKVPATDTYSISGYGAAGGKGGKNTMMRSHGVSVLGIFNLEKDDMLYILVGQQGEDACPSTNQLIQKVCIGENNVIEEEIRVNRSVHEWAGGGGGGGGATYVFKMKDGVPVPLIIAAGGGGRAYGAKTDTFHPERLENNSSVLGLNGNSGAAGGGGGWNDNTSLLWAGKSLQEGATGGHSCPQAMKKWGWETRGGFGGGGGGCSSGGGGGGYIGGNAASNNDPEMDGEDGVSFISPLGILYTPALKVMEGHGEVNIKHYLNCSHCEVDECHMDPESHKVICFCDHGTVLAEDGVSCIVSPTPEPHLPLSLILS

B1: 8G7: murine monoclonal IgG1 anti-ALK antibody to the N-terminal ECD of human ALK; VH SEQ ID NO: 3, VL SEQ ID NO: 4 (antibody, V domains shown)
VH: QVQLQQSGAELVRPGASVTLSCKASGYTFTDYEMHWVKQTPVHGLEWIGAIDPETGGSAYNQKFKAKAILTADRSSSTAYMELRSLTSEDSAVYYCTRTRYYGSSPAMDYWGQGTSVTVSS
VL: DIQMTQTTSSLSASLGDRVTISCSASQGIGNYLNWYQQKPDGTVKLLIYYTSSLHSGVPSRFSGSGSGTDYSLTISNLEPEDIATYYCQQYSKLPYTFGGGTKLEIK
ALK specificity of the clone's monoclonal antibody [1]: high ALK specificity | ALK protein recognized by western blotting in cell lysates ([2]; cell lysates of neuroblastoma cells expressing ALK): recognized a 220 kDa protein in the cell lysates of neuroblastoma cells; also recorded: detected the 220 kDa full-length protein but not the 140 kDa fragment in cell lysates | ALK protein recognized by western blotting in media ([2]; conditioned media of NB cells, shed ECD domain): an approximately 100 kDa protein in the media; also recorded: ALK fragment with a molecular mass of approximately 100 kDa was identified in the conditioned media of all five NB cell lines | binding in immunocytochemistry and immunohistochemistry [3]: showed binding in engineered cells and transgenic mice tumors
